Here are results for 27 molecules from patent EP4768503A1 (Keymed Biosciences (Chengdu) Co., Ltd., dated 2026).

In one experiment the target is T1, Aβ1-42 protofibril (human).
T1 construct: also called amyloid protofibril
The experiment is described as follows: SPR (Biacore T200), protofibril on CM5 chip, antibody as analyte. (In general: Surface plasmon resonance follows binding to a sensor surface in real time, without labels.)

Another experiment deals with T2, pyroE Aβ3-42 peptide (human, pyroglutamate derived from glutamic acid at the third amino acid position of Aβ (N-terminus of the peptide)).
T2 construct: Synthetic peptide; It lacks the first two N-terminal residues of Aβ; also called pyroglutamate-modified β-amyloid
The experiment is described as follows: graded binding, chimeric antibody (assay not named; ELISA in Example 1).

Experiment [1] deals with T3, pyroE Aβ3-16-biotin polypeptide (human, also: biotin, position not given here).
T3 peptide: [pGlu]FRHDSGYEVHHQK
The experiment is described as follows: SPR (Biacore T200), biotinylated peptide on SA chip, antibody as analyte; antigen channel not given.

Where a chain is given by its changes, count along the chain named. Where no end group is shown, it is not given here. [ ]: non-standard residue; d: D form. pGlu = O=C1CC[C@@H](C(=O)O)N1

T1 sequence (peptide, as listed by the source): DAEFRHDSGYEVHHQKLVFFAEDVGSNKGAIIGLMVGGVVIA
T2 sequence (peptide, as listed by the source): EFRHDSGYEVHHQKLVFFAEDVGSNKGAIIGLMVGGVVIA

B1: 7C8 H2K2 hIgG1 (antibody, V domains shown)
VH: QVTLKESGPALVKPTQTLTLTCTFSGFSLSTSGMGVSWIRQPPGKALEWLAHIYWDDDKRYNPSLKSRLTITKDTSKNQVVLTMTNMDPVDTATYYCARYGKGFAYWGQGTLVTVSS
VL: DIVMTQSPLSLPVTPGEPASISCRSSQSIVHSNGNTYLDWYLQKPGQSPQLLIYKVSNRFSGVPDRFSGSGSGTDFTLKISRVEAEDVGVYYCFQGSHVPLTFGQGTKLEIK
notes: also called h7C8 H2 + h7C8 K2
Consider B1, for which, in the experiment with Aβ1-42 protofibril, the Kd – broadly, the constant that tells how readily two partners part at equilibrium – was 2.76 nM; the koff (usually the rate constant with which the complex falls apart) amounted to 0.00293 s⁻¹; the kon – broadly, the second-order rate constant of association – was 1.06e+06 M⁻¹ s⁻¹.

B2: 7C8 H6K2 hIgG1 (antibody, V domains shown)
VH: QVQLQESGPGLVKPSETLSLTCTFSGFSISTSGMGVSWIRQPPGKGLEWIGHIYWDDDKRYNPSLKSRVTISKDTSKNQVSLKLSSVTAADTAVYYCARYGKGFAYWGQGTLVTVSS
VL: B1 VL
notes: also called h7C8 H6K2 hIgG1; h7C8 H6K2
Consider B2, for which, in the experiment with Aβ1-42 protofibril, binding was put at a Kd of 2.8 nM, the koff stood at 0.0041 s⁻¹ and the association rate constant (kon) amounted to 1.46e+06 M⁻¹ s⁻¹.

B3: 7C8 H6K1 hIgG1 (antibody, V domains shown)
VH: B2 VH
VL: B1 VL with I2V, D39E, Q50K
notes: also called h7C8 H6 + h7C8 K1
With B3, in the experiment with Aβ1-42 protofibril, the Kd turned out to be 2.63 nM, the koff worked out at 0.00472 s⁻¹ and the kon came to 1.79e+06 M⁻¹ s⁻¹.

B4: 7C8 H2K1 hIgG1 (antibody, V domains shown)
VH: B1 VH
VL: B1 VL with I2V, D39E, Q50K
notes: also called h7C8 H2 + h7C8 K1
As to B4, in the experiment with Aβ1-42 protofibril, binding was characterised by a dissociation constant (Kd) of 2.74 nM, the off-rate (koff) was 0.0028 s⁻¹ and the association rate constant (kon) was 1.02e+06 M⁻¹ s⁻¹.

B5: 7C8 H7K2 hIgG1 (antibody, V domains shown)
VH: B2 VH with F24V
VL: B1 VL
notes: also called h7C8 H7 + h7C8 K2
As to B5, in the experiment with Aβ1-42 protofibril, the affinity, expressed as Kd, was 2.33 nM; the koff is 0.00415 s⁻¹; the kon is 1.78e+06 M⁻¹ s⁻¹.

B6: 7C8 H5K2 hIgG1 (antibody, V domains shown)
VH: B2 VH with I29L, G51A
VL: B1 VL
notes: also called h7C8 H5 + h7C8 K2
B6: in the experiment with Aβ1-42 protofibril, binding was put at a Kd of 2.95 nM, the koff is 0.00395 s⁻¹ and the kon stood at 1.34e+06 M⁻¹ s⁻¹.

B7: 7C8 H7K1 hIgG1 (antibody, V domains shown)
VH: B2 VH with F24V
VL: B1 VL with I2V, D39E, Q50K
notes: also called h7C8 H7 + h7C8 K1
In the experiment with Aβ1-42 protofibril, B7 registered a dissociation constant (Kd) of 1.93 nM, a koff of 0.00466 s⁻¹ and an on-rate (kon) of 2.42e+06 M⁻¹ s⁻¹.

B8: 7C8 H4K2 hIgG1 (antibody, V domains shown)
VH: B2 VH with I29L, I50L, G51A, K77R
VL: B1 VL
notes: also called h7C8 H4 + h7C8 K2
For B8, in the experiment with Aβ1-42 protofibril, binding was put at a Kd of 3.08 nM, the koff was determined as 0.0037 s⁻¹ and the association rate constant (kon) was 1.2e+06 M⁻¹ s⁻¹.

B9: 171P1 (antibody, V domains shown)
VH: QVQLEQPGAVSVRPGASVKLSCKASGYTFTSYWINWVKQRPGQGLEWIGNIYPSDSYTHYNQKFKDKATLTVDKSSTTAYMQISSPTSEDSAVYYCTREGTVVYWGQGTLLTVSA
VL: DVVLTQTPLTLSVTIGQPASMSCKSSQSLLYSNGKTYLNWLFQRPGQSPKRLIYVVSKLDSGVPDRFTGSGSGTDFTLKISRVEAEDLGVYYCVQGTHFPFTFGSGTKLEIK
notes: Chimeric antibody; the constant region of the chimeric form is not specified
As for B9, in the experiment with pyroE Aβ3-42 peptide, the binding result is “binds”.

B10: 192E15 (antibody, V domains shown)
VH: EVKLVESGGGLVQPGGSRKLSCAASGFTFSDYGMAWVRQAPGKGPEWVAFISNLAYSIYYADTVTGRFTISRQNAKNTLYLEMSSLRSEDTAMYYCARDRGYDGHSPYYAMDYWGQGTSVTVSS
VL: QAVVTQESALTTSPGETVTLTCRSSTGAVTTSNYANWVQEKPDHLFTGLIGGTSNRPPGVPARFSGSLIGDKAALTITGAQTEDEAIYFCALWYSHHWVFGGGTKLTVL
notes: as for B9
Take B10: the binding result in the experiment with pyroE Aβ3-42 peptide was “binds”.

B11: 193D22 (antibody, V domains shown)
VH: EVKLVESGGGLVKPGGSLKLSCAASGFAFSSYDMSWVRQTPEKRLEWVATISNGGSYTYYPDSVKGRFSISRDNARNTLYLQMSSLRSEDTALYYCARHPLYYGNYGWWYFDVWGAGTTVTVSS
VL: DVVMTQTPLSLPVSLGDQASISCRSSQSLVYSNGNTYLYWYLQKPGQSPKLLIYKVSNRFSGVPDRFSGSGSGTDFTLKISRVEAEDLGVYFCSQSTHVPLTFGAGTKLELK
notes: as for B9
With B11, the binding result with pyroE Aβ3-42 peptide is recorded as “binds”.

B12: 193M7 (antibody, V domains shown)
VH: B11 VH with N53S, G54R, S56T, S69T, D73N, W108Y
VL: B11 VL with Y31H, N33D, T36I
notes: as for B9
On to B12, for which the binding result in the experiment with pyroE Aβ3-42 peptide was “binds”.

B13: 151N5 H1K1 (antibody, V domains shown)
VH: EVQLVESGGGLVKPGGSLRLSCAASGFTFSDFYMYWVRQAPGKGLEWVATISDGGRYTYYPDRLKGRFTISRDIAKNSLYLQMNSLRAEDTAVYYCARGRSTMITTTRNYFALDYWGQGTLVTVSS
VL: DIQMTQSPSSLSASVGDRVTITCKASEDIYNRLAWYQQKPGKAPKLLISGATSLETGVPSRFSGSGSGKDYTLTISSLQPEDIATYYCQQYWRTPLTFGQGTKLEIK
notes: also called h151N5 H1 + h151N5 K1
As for B13, in experiment [1], the dissociation constant (Kd) stood at 321 pM, the off-rate (koff) is 0.0002 s⁻¹ and the kon was found to be 622000 M⁻¹ s⁻¹.

B14: 151N5 H1K2 (antibody, V domains shown)
VH: B13 VH
VL: B13 VL with I83V
notes: also called h151N5 H1 + h151N5 K2
Regarding B14, in experiment [1], the Kd worked out at 319 pM, the off-rate (koff) came to 0.000207 s⁻¹ and the association rate constant (kon) turned out to be 648000 M⁻¹ s⁻¹.

B15: 178D4 (antibody, V domains shown)
VH: QVQLQQSGAELVKPGASVKLSCKASGYTFTSYDLNWVRQRPEQGLEWIGWTFPGDGRTKYNEKFKGKATLTTDKSSSTAYMHLSRLTSEDSAVYFCVRWDYYGRSTGYFDVWGAGTTVTVSS
VL: QIVLTQSPAIMSASLGERVTMTCTASSSVSSSYLHWYQQRPGSSPKLWIYGTSNLASGVPARFSGSGSGTSYSLTISSMEAEDAATYYCHQYHRSPLTFGAGTKLELK
notes: as for B9
With B15, in the experiment with pyroE Aβ3-42 peptide, the binding result is “binds”.

B16: 175P19 (antibody, V domains shown)
VH: EVMLVESGRDLVKPGGSLRLSCAASGFTFSTYAMSWIRQTPEKRLEWVATITSAGTYTYYPDSVKGRFTISRDNAKNTLYLQMRSLRSEDTAMYYCVRHELITTVVSTDYFSMDYWGQGTSVTVSS
VL: DIVLTQSPASLAVSLGQRATISCRASESVEYYGTSLMQWYQQKPGQPPKLLIYAASNVESGVPARFSGSGSGTDFSLNIHPVEEDDVAMYFCQQSRKVPLTFGAGTKLELK
notes: as for B9
For B16, in the experiment with pyroE Aβ3-42 peptide, the binding result is “binds”.

B17: 185O18 (antibody, V domains shown)
VH: B16 VH with R19K, S53N, A54Y
VL: B16 VL with Y31D
notes: Chimeric antibody; also called 185018
As to B17, in the experiment with pyroE Aβ3-42 peptide, the binding result was “binds”.

B18: 200O1 H1K1 (antibody, V domains shown)
VH: QVTLKESGPVLVKPTETLTLTCTVSGFSLSRYIVHWYRQPPGKALEWLAMIWGGGRIDYNSALKSRLTISKDNSKSQVVLTMTNMDPVDTATYYCARNFGENAEAYWGQGTLVTVSS
VL: DIQMTQSPSSLSASVGDRVTITCRASQDINIYLNWYQQKPGKVVKLLIYYTSRLHSGVPSRFSGSGSGTDFTLTISSLQPEDVATYFCQQGHTLPYTFGQGTKLEIK
notes: also called h200O1 H1K1 hIgG1; h200O1 H1K1
As to B18, in experiment [1], the Kd came to 0.0011 pM and the on-rate constant (kon) amounted to 682000 M⁻¹ s⁻¹.

B19: 200O1 H5K1 (antibody, V domains shown)
VH: QVQLQESGPGLVKPSETLSLTCTVSGFSLSRYIVHWYRQPPGKGLEWIGMIWGGGRIDYNSALKSRVTISKDNSKSQVSLKLSSVTAADTAVYYCARNFGENAEAYWGQGTLVTVSS
VL: B18 VL
notes: also called h200O1 H5 + h200O1 K1
On to B19, for which, in experiment [1], the dissociation constant (Kd) amounted to 0.0736 pM, the dissociation rate constant (koff) came out at 5.7e-08 s⁻¹ and the on-rate constant (kon) is 776000 M⁻¹ s⁻¹.

B20: 200O1 H2K1 (antibody, V domains shown)
VH: B18 VH with N73T
VL: B18 VL
notes: also called h200O1 H2 + h200O1 K1
In experiment [1], B20 returned a Kd of 0.625 pM, an off-rate constant (koff) of 2.38e-07 s⁻¹ and a kon of 381000 M⁻¹ s⁻¹.

B21: 200O1 H6K1 (antibody, V domains shown)
VH: B19 VH with N73T, S76N
VL: B18 VL
notes: also called h200O1 H6 + h200O1 K1
In experiment [1], B21 had an equilibrium dissociation constant (Kd) of 0.61 pM, a koff of 4.55e-07 s⁻¹ and an on-rate constant (kon) of 747000 M⁻¹ s⁻¹.

B22: 6B5 H1K2 hIgG1 (antibody, V domains shown)
VH: QVQLVQSGAEVKKPGASVKVSCKASGYTFTTYWMHWVRQAPGQGLEWIGEIDPSDSYTNYNQKFKGRATLTVDKSSSTAYMELSSLRSEDTAVYYCARSFHGNFFVYWGQGTLVTVSS
VL: EIVLTQSPATLSLSPGERATLSCRASSSVSYMHWFQQKPGQAPRLLIYSTSNLATGIPARFSGSGSGTDYTLTISRLEPEDFAVYYCQQRSSYPLTFGQGTKLEIK
notes: also called h6B5 H1 + h6B5 K2
In the experiment with Aβ1-42 protofibril, B22 yielded a Kd of 2.11 nM, a dissociation rate constant (koff) of 0.00361 s⁻¹ and a kon of 1.71e+06 M⁻¹ s⁻¹.

B23: 6B5 H1K5 hIgG1 (antibody, V domains shown)
VH: B22 VH
VL: DIQMTQSPSSLSASVGDRVTITCRASSSVSYMHWFQQKPGKAPKLLIYSTSNLASGVPSRFSGSGSGTDYTLTISSLQPEDFATYYCQQRSSYPLTFGQGTKLEIK
notes: also called h6B5 H1 + h6B5 K5
In the experiment with Aβ1-42 protofibril, B23 had a Kd of 1.87 nM, an off-rate constant (koff) of 0.00354 s⁻¹ and a kon of 1.9e+06 M⁻¹ s⁻¹.

B24: 6B5 H1K6 hIgG1 (antibody, V domains shown)
VH: B22 VH
VL: B23 VL with N52S, A54Q
notes: also called h6B5 H1 + h6B5 K6
As for B24, in the experiment with Aβ1-42 protofibril, binding was put at a Kd of 1.64 nM, the koff was determined as 0.00401 s⁻¹ and the on-rate (kon) is 2.44e+06 M⁻¹ s⁻¹.

B25: 6B5 H1K1 hIgG1 (antibody, V domains shown)
VH: B22 VH
VL: B22 VL with L46W, T55S
notes: also called h6B5 H1 + h6B5 K1
Consider B25, for which, in the experiment with Aβ1-42 protofibril, the Kd amounted to 1.7 nM, the koff amounted to 0.00255 s⁻¹ and the kon worked out at 1.49e+06 M⁻¹ s⁻¹.

B26: 6B5 H1K3 hIgG1 (antibody, V domains shown)
VH: B22 VH
VL: B22 VL with N52S, L53R
notes: also called h6B5 H1 + h6B5 K3
Take B26: in the experiment with Aβ1-42 protofibril, binding was characterised by a dissociation constant (Kd) of 1.42 nM, the dissociation rate constant (koff) worked out at 0.00404 s⁻¹ and the kon amounted to 2.85e+06 M⁻¹ s⁻¹.

B27: 6B5 H1K4 hIgG1 (antibody, V domains shown)
VH: B22 VH
VL: B23 VL with M4L, L46W
notes: also called h6B5 H1 + h6B5 K4
On to B27, for which, in the experiment with Aβ1-42 protofibril, the affinity, expressed as Kd, was 1.6 nM; the koff worked out at 0.00229 s⁻¹; the kon was found to be 1.43e+06 M⁻¹ s⁻¹.
